According to the supplement of paper PMC9112550, “Optimization of the antimicrobial peptide Bac7 by deep mutational scanning” (BMC Biology, 2022):

The sequences below were run on Escherichia coli TOP10 (assay: shrunken log2 fold change of peptide-encoding DNA abundance (4.5 h post-induction vs induction); higher = less antimicrobial activity (less host growth inhibition)). Conditions: time post-induction: 4.5 h; library: site-saturation at positions 5, 18, 19, 20.
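Further: peptides expressed intracellularly from a pBAD plasmid library in pooled LB shake-flask culture, induced with 0.3% L-arabinose, DNA abundance read by NGS, three biological replicates, DESeq2 with apeglm shrinkage.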

Sequence | shrunken log2 fold change
RRIRKRPPRLPRPRPRPYMPPRP | -0.315
RRIRGRPPRLPRPRPRPVQNPRP | 0.588
RRIRSRPPRLPRPRPRPENGPRP | 0.0751
RRIRIRPPRLPRPRPRPIYAPRP | -0.758
RRIRSRPPRLPRPRPRPRICPRP | -0.191
RRIRWRPPRLPRPRPRPMAQPRP | 0.218
RRIRCRPPRLPRPRPRPTNMPRP | -0.47
RRIRVRPPRLPRPRPRPKVTPRP | 0.0458
RRIRIRPPRLPRPRPRPVSNPRP | -0.0661
RRIRRRPPRLPRPRPRPKPEPRP | 0.489
RRIRHRPPRLPRPRPRPTWAPRP | 0.303
RRIRWRPPRLPRPRPRPPFCPRP | 0.24
RRIRWRPPRLPRPRPRPRTSPRP | -0.0212
RRIRTRPPRLPRPRPRPDLPPRP | 0.0603
RRIRTRPPRLPRPRPRPQRGPRP | 0.31
RRIRNRPPRLPRPRPRPGQSPRP | 0.108
RRIRIRPPRLPRPRPRPMHEPRP | -0.0221
RRIRCRPPRLPRPRPRPPKTPRP | -0.00862
RRIRRRPPRLPRPRPRPVRGPRP | 0.805
RRIRLRPPRLPRPRPRPLNKPRP | -0.264
RRIRRRPPRLPRPRPRPGARPRP | 0.507
RRIRHRPPRLPRPRPRPKIRPRP | -0.156
RRIRARPPRLPRPRPRPPQCPRP | 0.585
RRIRVRPPRLPRPRPRPEFWPRP | 0.439
RRIRNRPPRLPRPRPRPCCDPRP | -0.0282

Sequence | shrunken log2 fold change
RRIRRRPPRLPRPRPRPGVTPRP | 0.303
RRIRQRPPRLPRPRPRPINCPRP | -0.384
RRIRQRPPRLPRPRPRPFEFPRP | -0.109
RRIRKRPPRLPRPRPRPQAPPRP | 0.537
RRIRGRPPRLPRPRPRPSMQPRP | 0.599
RRIRCRPPRLPRPRPRPPDMPRP | -0.000808
RRIRHRPPRLPRPRPRPAWAPRP | 0.48
RRIRDRPPRLPRPRPRPYVFPRP | -0.18
RRIRSRPPRLPRPRPRPVWVPRP | 0.351
RRIRGRPPRLPRPRPRPRFQPRP | 0.158
RRIRCRPPRLPRPRPRPHYYPRP | -1.07
RRIRARPPRLPRPRPRPYLRPRP | -0.228
RRIRWRPPRLPRPRPRPPMEPRP | -0.131
RRIRDRPPRLPRPRPRPKLCPRP | -0.0785
RRIRRRPPRLPRPRPRPMMIPRP | -0.185
RRIRPRPPRLPRPRPRPAEGPRP | 0.394
RRIRTRPPRLPRPRPRPNNTPRP | -0.518
RRIRSRPPRLPRPRPRPVKQPRP | 0.0733
RRIRSRPPRLPRPRPRPGNRPRP | -0.00644
RRIRGRPPRLPRPRPRPWFAPRP | 0.0421
RRIRNRPPRLPRPRPRPLAYPRP | -0.175
RRIRMRPPRLPRPRPRPDKRPRP | 0.076
RRIRNRPPRLPRPRPRPQCDPRP | -0.282
RRIRGRPPRLPRPRPRPGGTPRP | 1.09
RRIRIRPPRLPRPRPRPIRNPRP | -0.236

Sequence | shrunken log2 fold change
RRIRFRPPRLPRPRPRPDIVPRP | -0.0567
RRIRWRPPRLPRPRPRPAPKPRP | 0.992
RRIRHRPPRLPRPRPRPSALPRP | -0.243
RRIRRRPPRLPRPRPRPELCPRP | 0.101
RRIRSRPPRLPRPRPRPNIEPRP | -0.264
RRIRIRPPRLPRPRPRPEFNPRP | -0.0922
RRIRFRPPRLPRPRPRPCSTPRP | -0.177
RRIRKRPPRLPRPRPRPYVEPRP | -1.51
RRIRRRPPRLPRPRPRPDDTPRP | 0.139
RRIRTRPPRLPRPRPRPRWPPRP | 0.424
RRIRYRPPRLPRPRPRPMDKPRP | -0.432
RRIRPRPPRLPRPRPRPEAEPRP | 0.979
RRIRPRPPRLPRPRPRPLDFPRP | -0.116
RRIRPRPPRLPRPRPRPMMSPRP | 0.081
RRIRGRPPRLPRPRPRPLWGPRP | 0.583
RRIRVRPPRLPRPRPRPNLCPRP | -0.292
RRIRVRPPRLPRPRPRPPSNPRP | -0.034
RRIRPRPPRLPRPRPRPPRWPRP | 0.495
RRIRERPPRLPRPRPRPWYLPRP | 0.0355
RRIRNRPPRLPRPRPRPYDNPRP | -0.897
RRIRPRPPRLPRPRPRPICAPRP | 0.0637
RRIRARPPRLPRPRPRPEFQPRP | 0.666
RRIRLRPPRLPRPRPRPGDWPRP | 0.618
RRIRKRPPRLPRPRPRPLHNPRP | 0.0882
RRIRERPPRLPRPRPRPFYHPRP | -1.01

Sequence | shrunken log2 fold change
RRIRNRPPRLPRPRPRPEHTPRP | -0.0129
RRIRERPPRLPRPRPRPVFVPRP | -0.178
RRIRTRPPRLPRPRPRPCASPRP | 0.184
RRIRQRPPRLPRPRPRPLWNPRP | -0.245
RRIRDRPPRLPRPRPRPNHCPRP | 0.0177
RRIRFRPPRLPRPRPRPVCPPRP | 0.311
RRIRKRPPRLPRPRPRPAQPPRP | 0.764
RRIRFRPPRLPRPRPRPANHPRP | -0.264
RRIRDRPPRLPRPRPRPAWFPRP | 0.118
RRIRRRPPRLPRPRPRPHHGPRP | -0.249
RRIRRRPPRLPRPRPRPMDIPRP | -0.168
RRIRGRPPRLPRPRPRPIGRPRP | 0.551
RRIRNRPPRLPRPRPRPSHVPRP | -0.0765
RRIRARPPRLPRPRPRPGYDPRP | -0.0224
RRIRSRPPRLPRPRPRPRNLPRP | -0.322
RRIRQRPPRLPRPRPRPTMTPRP | -0.0845
RRIRFRPPRLPRPRPRPHEQPRP | 0.0928
RRIRQRPPRLPRPRPRPHLTPRP | -0.016
RRIRCRPPRLPRPRPRPRPLPRP | 0.319
RRIRQRPPRLPRPRPRPQEIPRP | 0.0292
RRIRIRPPRLPRPRPRPFPMPRP | -0.412
RRIRRRPPRLPRPRPRPVFGPRP | 0.329
RRIRLRPPRLPRPRPRPRHGPRP | 0.414
RRIRHRPPRLPRPRPRPATKPRP | -0.0317
RRIRYRPPRLPRPRPRPPLDPRP | 0.443

Sequence | shrunken log2 fold change
RRIRERPPRLPRPRPRPYVMPRP | -0.401
RRIRLRPPRLPRPRPRPNECPRP | -0.0751
RRIRNRPPRLPRPRPRPVIHPRP | -0.0797
RRIRLRPPRLPRPRPRPGNMPRP | -0.157
RRIRIRPPRLPRPRPRPDKMPRP | -0.473
RRIRMRPPRLPRPRPRPTIEPRP | 0.43
RRIRQRPPRLPRPRPRPTAEPRP | 0.363
RRIRLRPPRLPRPRPRPCVDPRP | 0.0214
RRIRRRPPRLPRPRPRPEDIPRP | 0.06
RRIRLRPPRLPRPRPRPTVVPRP | -0.0551
RRIRERPPRLPRPRPRPGNEPRP | -0.0966
RRIRHRPPRLPRPRPRPTIVPRP | -0.292
RRIRQRPPRLPRPRPRPRYNPRP | -0.527
RRIRARPPRLPRPRPRPGMMPRP | 0.207
RRIRLRPPRLPRPRPRPNGYPRP | -0.315
RRIRERPPRLPRPRPRPPGCPRP | 0.124
RRIRKRPPRLPRPRPRPTQYPRP | 0.0924
RRIRERPPRLPRPRPRPRYGPRP | 1.59
RRIRRRPPRLPRPRPRPCMIPRP | -0.108
RRIRMRPPRLPRPRPRPNLQPRP | -0.0416
RRIRRRPPRLPRPRPRPPADPRP | 0.781
RRIRLRPPRLPRPRPRPHTPPRP | -0.295
RRIRTRPPRLPRPRPRPDYAPRP | 0.0553
RRIRMRPPRLPRPRPRPAYRPRP | 0.196
RRIRRRPPRLPRPRPRPHWAPRP | -0.17

Sequence | shrunken log2 fold change
RRIRARPPRLPRPRPRPIDEPRP | 0.379
RRIRARPPRLPRPRPRPNADPRP | 0.825
RRIRCRPPRLPRPRPRPKRDPRP | 5.21
RRIRTRPPRLPRPRPRPNAFPRP | -0.0622
RRIRIRPPRLPRPRPRPPKCPRP | -0.101
RRIRARPPRLPRPRPRPVDAPRP | 1.28
RRIRSRPPRLPRPRPRPENTPRP | -0.258
RRIRGRPPRLPRPRPRPKCNPRP | 0.541
RRIRSRPPRLPRPRPRPRGTPRP | 0.407
RRIRIRPPRLPRPRPRPWARPRP | 0.0419
RRIRFRPPRLPRPRPRPINLPRP | -0.291
RRIRQRPPRLPRPRPRPGHHPRP | 0.245
RRIRCRPPRLPRPRPRPNETPRP | -0.0198
RRIRIRPPRLPRPRPRPKHCPRP | -0.405
RRIRTRPPRLPRPRPRPRLMPRP | 0.119
RRIRRRPPRLPRPRPRPPEVPRP | 0.821
RRIRMRPPRLPRPRPRPPGMPRP | 1.08
RRIRSRPPRLPRPRPRPDWDPRP | 0.157
RRIRLRPPRLPRPRPRPGFRPRP | 0.0673
RRIRIRPPRLPRPRPRPRTHPRP | -0.372
RRIRFRPPRLPRPRPRPAFGPRP | 0.21
RRIRLRPPRLPRPRPRPQQIPRP | -0.878
RRIRNRPPRLPRPRPRPSFYPRP | -0.658
RRIRARPPRLPRPRPRPPQWPRP | 0.814
RRIRVRPPRLPRPRPRPCLMPRP | -0.178
